# Results from patent CN113512118A (INST BIOPHYSICS CAS, dated 2021).
# B1: AA98抗体 (mouse monoclonal anti-CD146 antibody AA98) (antibody, mouse IgG2a, kappa, V domains shown)
# VH: EVQLLESGAELVRPGASVKLSCKTSGYIFTNYWIHWVKNRSGNGLEWIARIYPGTDITYYNEKFKGKATLTVDKSSSSAYMLLSSLKSEDSSVYFCARSGGYWYFDVWGAGTTVTVSS
# VL: ELVMTQSPASLAVSLGQRATISCRASKSVSISGYSYMHWYQQKPGQPPKLLIYLASNLESGVPARFSGSGSGTDFTLNIHPVEEEDAATYYCQHSRELPYTFGGGTKLEIKR
# notes: also called 母本AA98抗体; 亲本AA98抗体
# Target: T1, sCD146蛋白 (CD146胞外区蛋白, Sino Biological 10115-H08H-20) (human, UniProt P43121 24-559)
# T1 construct: extracellular domain; also called 胞外区CD146蛋白
# T1 sequence (looked up): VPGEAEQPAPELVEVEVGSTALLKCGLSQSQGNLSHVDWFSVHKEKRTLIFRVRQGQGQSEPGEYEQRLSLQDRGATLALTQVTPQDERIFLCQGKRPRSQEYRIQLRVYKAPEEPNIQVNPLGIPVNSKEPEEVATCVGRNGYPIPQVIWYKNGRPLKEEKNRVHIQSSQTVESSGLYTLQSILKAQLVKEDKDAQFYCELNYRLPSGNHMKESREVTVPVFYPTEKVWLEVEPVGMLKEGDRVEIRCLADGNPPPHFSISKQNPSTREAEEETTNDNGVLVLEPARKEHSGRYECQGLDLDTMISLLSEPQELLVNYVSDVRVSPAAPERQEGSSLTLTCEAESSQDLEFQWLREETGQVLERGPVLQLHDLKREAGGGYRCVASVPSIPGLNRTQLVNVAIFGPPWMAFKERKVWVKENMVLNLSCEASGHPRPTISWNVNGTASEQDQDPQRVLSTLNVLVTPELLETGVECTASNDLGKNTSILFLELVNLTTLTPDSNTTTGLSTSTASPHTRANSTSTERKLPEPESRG
# Assay: BLI (Octet Red96), antibody on Anti-Mouse Fc Capture sensor, sCD146 at 250-3.91 nM
binder,measurement,value
B1,Kd,1.12 nM
